In patent publication US20150087577A1 (POLYPHOR, published 2015):
Bridges are numbered along the chain shown (N, C = ends). [ ]: non-standard residue; d: D form. 2Nal = N[C@@H](Cc1ccc2ccccc2c1)C(=O)O; Cit = NC(=O)NCCC[C@H](N)C(=O)O

B1: Example 60 (peptide)
peptide: cyclo(YR[Cit]CRG[dP]RR[2Nal]CYQQ[dP]P)
modifications: disulfide 4-11
SMILES: N=C(N)NCCC[C@@H]1NC(=O)[C@@H]2CSSC[C@H](NC(=O)[C@H](Cc3ccc4ccccc4c3)NC(=O)[C@H](CCCNC(=N)N)NC(=O)[C@H](CCCNC(=N)N)NC(=O)[C@H]3CCCN3C(=O)CNC1=O)C(=O)N[C@@H](Cc1ccc(O)cc1)C(=O)N[C@@H](CCC(N)=O)C(=O)N[C@@H](CCC(N)=O)C(=O)N1CCC[C@@H]1C(=O)N1CCC[C@H]1C(=O)N[C@@H](Cc1ccc(O)cc1)C(=O)N[C@@H](CCCNC(=N)N)C(=O)N[C@@H](CCCNC(N)=O)C(=O)N2
B2: Example 61 (peptide)
peptide: cyclo(YR[Cit]CRG[dP]RR[2Nal]CYQE[dP]P)
modifications: disulfide 4-11
SMILES: N=C(N)NCCC[C@@H]1NC(=O)[C@@H]2CSSC[C@H](NC(=O)[C@H](Cc3ccc4ccccc4c3)NC(=O)[C@H](CCCNC(=N)N)NC(=O)[C@H](CCCNC(=N)N)NC(=O)[C@H]3CCCN3C(=O)CNC1=O)C(=O)N[C@@H](Cc1ccc(O)cc1)C(=O)N[C@@H](CCC(N)=O)C(=O)N[C@@H](CCC(=O)O)C(=O)N1CCC[C@@H]1C(=O)N1CCC[C@H]1C(=O)N[C@@H](Cc1ccc(O)cc1)C(=O)N[C@@H](CCCNC(=N)N)C(=O)N[C@@H](CCCNC(N)=O)C(=O)N2
B3: Example 62 (peptide)
peptide: cyclo(QR[Cit]CRG[dP]RR[2Nal]CYQK[dP]P)
modifications: disulfide 4-11
SMILES: N=C(N)NCCC[C@@H]1NC(=O)[C@@H]2CSSC[C@H](NC(=O)[C@H](Cc3ccc4ccccc4c3)NC(=O)[C@H](CCCNC(=N)N)NC(=O)[C@H](CCCNC(=N)N)NC(=O)[C@H]3CCCN3C(=O)CNC1=O)C(=O)N[C@@H](Cc1ccc(O)cc1)C(=O)N[C@@H](CCC(N)=O)C(=O)N[C@@H](CCCCN)C(=O)N1CCC[C@@H]1C(=O)N1CCC[C@H]1C(=O)N[C@@H](CCC(N)=O)C(=O)N[C@@H](CCCNC(=N)N)C(=O)N[C@@H](CCCNC(N)=O)C(=O)N2
B4: Example 63 (peptide)
peptide: cyclo(RR[Cit]CRG[dP]RR[2Nal]CYQK[dP]P)
modifications: disulfide 4-11
SMILES: N=C(N)NCCC[C@@H]1NC(=O)[C@@H]2CSSC[C@H](NC(=O)[C@H](Cc3ccc4ccccc4c3)NC(=O)[C@H](CCCNC(=N)N)NC(=O)[C@H](CCCNC(=N)N)NC(=O)[C@H]3CCCN3C(=O)CNC1=O)C(=O)N[C@@H](Cc1ccc(O)cc1)C(=O)N[C@@H](CCC(N)=O)C(=O)N[C@@H](CCCCN)C(=O)N1CCC[C@@H]1C(=O)N1CCC[C@H]1C(=O)N[C@@H](CCCNC(=N)N)C(=O)N[C@@H](CCCNC(=N)N)C(=O)N[C@@H](CCCNC(N)=O)C(=O)N2
B5: Example 64 (peptide)
peptide: cyclo(HR[Cit]CRG[dP]RR[2Nal]CYQK[dP]P)
modifications: disulfide 4-11
SMILES: N=C(N)NCCC[C@@H]1NC(=O)[C@@H]2CSSC[C@H](NC(=O)[C@H](Cc3ccc4ccccc4c3)NC(=O)[C@H](CCCNC(=N)N)NC(=O)[C@H](CCCNC(=N)N)NC(=O)[C@H]3CCCN3C(=O)CNC1=O)C(=O)N[C@@H](Cc1ccc(O)cc1)C(=O)N[C@@H](CCC(N)=O)C(=O)N[C@@H](CCCCN)C(=O)N1CCC[C@@H]1C(=O)N1CCC[C@H]1C(=O)N[C@@H](Cc1c[nH]cn1)C(=O)N[C@@H](CCCNC(=N)N)C(=O)N[C@@H](CCCNC(N)=O)C(=O)N2
B6: Example 3 (peptide)
peptide: cyclo(YR[Cit]FRRR[2Nal]FY[Cit]K[dP]P)
SMILES: N=C(N)NCCC[C@@H]1NC(=O)[C@H](CCCNC(=N)N)NC(=O)[C@H](Cc2ccccc2)NC(=O)[C@H](CCCNC(N)=O)NC(=O)[C@H](CCCNC(=N)N)NC(=O)[C@H](Cc2ccc(O)cc2)NC(=O)[C@@H]2CCCN2C(=O)[C@H]2CCCN2C(=O)[C@H](CCCCN)NC(=O)[C@H](CCCNC(N)=O)NC(=O)[C@H](Cc2ccc(O)cc2)NC(=O)[C@H](Cc2ccccc2)NC(=O)[C@H](Cc2ccc3ccccc3c2)NC(=O)[C@H](CCCNC(=N)N)NC1=O
B7: Example 65 (peptide)
peptide: cyclo(IR[Cit]CRG[dP]RR[2Nal]CYQK[dP]P)
modifications: disulfide 4-11
SMILES: CC[C@H](C)[C@@H]1NC(=O)[C@@H]2CCCN2C(=O)[C@H]2CCCN2C(=O)[C@H](CCCCN)NC(=O)[C@H](CCC(N)=O)NC(=O)[C@H](Cc2ccc(O)cc2)NC(=O)[C@@H]2CSSC[C@H](NC(=O)[C@H](CCCNC(N)=O)NC(=O)[C@H](CCCNC(=N)N)NC1=O)C(=O)N[C@@H](CCCNC(=N)N)C(=O)NCC(=O)N1CCC[C@@H]1C(=O)N[C@@H](CCCNC(=N)N)C(=O)N[C@@H](CCCNC(=N)N)C(=O)N[C@@H](Cc1ccc3ccccc3c1)C(=O)N2
B8: Example 66 (peptide)
peptide: cyclo(WR[Cit]CRG[dP]RR[2Nal]CYQK[dP]P)
modifications: disulfide 4-11
SMILES: N=C(N)NCCC[C@@H]1NC(=O)[C@@H]2CSSC[C@H](NC(=O)[C@H](Cc3ccc4ccccc4c3)NC(=O)[C@H](CCCNC(=N)N)NC(=O)[C@H](CCCNC(=N)N)NC(=O)[C@H]3CCCN3C(=O)CNC1=O)C(=O)N[C@@H](Cc1ccc(O)cc1)C(=O)N[C@@H](CCC(N)=O)C(=O)N[C@@H](CCCCN)C(=O)N1CCC[C@@H]1C(=O)N1CCC[C@H]1C(=O)N[C@@H](Cc1c[nH]c3ccccc13)C(=O)N[C@@H](CCCNC(=N)N)C(=O)N[C@@H](CCCNC(N)=O)C(=O)N2
B9: Example 67 (peptide)
peptide: cyclo(TR[Cit]CRG[dP]RR[2Nal]CYQK[dP]P)
modifications: disulfide 4-11
SMILES: C[C@@H](O)[C@@H]1NC(=O)[C@@H]2CCCN2C(=O)[C@H]2CCCN2C(=O)[C@H](CCCCN)NC(=O)[C@H](CCC(N)=O)NC(=O)[C@H](Cc2ccc(O)cc2)NC(=O)[C@@H]2CSSC[C@H](NC(=O)[C@H](CCCNC(N)=O)NC(=O)[C@H](CCCNC(=N)N)NC1=O)C(=O)N[C@@H](CCCNC(=N)N)C(=O)NCC(=O)N1CCC[C@@H]1C(=O)N[C@@H](CCCNC(=N)N)C(=O)N[C@@H](CCCNC(=N)N)C(=O)N[C@@H](Cc1ccc3ccccc3c1)C(=O)N2
B10: Example 68 (peptide)
peptide: cyclo(ER[Cit]CRG[dP]RR[2Nal]CYQK[dP]P)
modifications: disulfide 4-11
SMILES: N=C(N)NCCC[C@@H]1NC(=O)[C@@H]2CSSC[C@H](NC(=O)[C@H](Cc3ccc4ccccc4c3)NC(=O)[C@H](CCCNC(=N)N)NC(=O)[C@H](CCCNC(=N)N)NC(=O)[C@H]3CCCN3C(=O)CNC1=O)C(=O)N[C@@H](Cc1ccc(O)cc1)C(=O)N[C@@H](CCC(N)=O)C(=O)N[C@@H](CCCCN)C(=O)N1CCC[C@@H]1C(=O)N1CCC[C@H]1C(=O)N[C@@H](CCC(=O)O)C(=O)N[C@@H](CCCNC(=N)N)C(=O)N[C@@H](CCCNC(N)=O)C(=O)N2
B11: Example 69 (peptide)
peptide: cyclo(YRRCRG[dP]RR[2Nal]CYQK[dP]P)
modifications: disulfide 4-11
SMILES: N=C(N)NCCC[C@@H]1NC(=O)[C@@H]2CSSC[C@H](NC(=O)[C@H](Cc3ccc4ccccc4c3)NC(=O)[C@H](CCCNC(=N)N)NC(=O)[C@H](CCCNC(=N)N)NC(=O)[C@H]3CCCN3C(=O)CNC1=O)C(=O)N[C@@H](Cc1ccc(O)cc1)C(=O)N[C@@H](CCC(N)=O)C(=O)N[C@@H](CCCCN)C(=O)N1CCC[C@@H]1C(=O)N1CCC[C@H]1C(=O)N[C@@H](Cc1ccc(O)cc1)C(=O)N[C@@H](CCCNC(=N)N)C(=O)N[C@@H](CCCNC(=N)N)C(=O)N2
B12: Example 70 (peptide)
peptide: cyclo(YRHCRG[dP]RR[2Nal]CYQK[dP]P)
modifications: disulfide 4-11
SMILES: N=C(N)NCCC[C@@H]1NC(=O)[C@@H]2CSSC[C@H](NC(=O)[C@H](Cc3ccc4ccccc4c3)NC(=O)[C@H](CCCNC(=N)N)NC(=O)[C@H](CCCNC(=N)N)NC(=O)[C@H]3CCCN3C(=O)CNC1=O)C(=O)N[C@@H](Cc1ccc(O)cc1)C(=O)N[C@@H](CCC(N)=O)C(=O)N[C@@H](CCCCN)C(=O)N1CCC[C@@H]1C(=O)N1CCC[C@H]1C(=O)N[C@@H](Cc1ccc(O)cc1)C(=O)N[C@@H](CCCNC(=N)N)C(=O)N[C@@H](Cc1c[nH]cn1)C(=O)N2
B13: Example 71 (peptide)
peptide: cyclo(YRICRG[dP]RR[2Nal]CYQK[dP]P)
modifications: disulfide 4-11
SMILES: CC[C@H](C)[C@@H]1NC(=O)[C@H](CCCNC(=N)N)NC(=O)[C@H](Cc2ccc(O)cc2)NC(=O)[C@@H]2CCCN2C(=O)[C@H]2CCCN2C(=O)[C@H](CCCCN)NC(=O)[C@H](CCC(N)=O)NC(=O)[C@H](Cc2ccc(O)cc2)NC(=O)[C@@H]2CSSC[C@H](NC1=O)C(=O)N[C@@H](CCCNC(=N)N)C(=O)NCC(=O)N1CCC[C@@H]1C(=O)N[C@@H](CCCNC(=N)N)C(=O)N[C@@H](CCCNC(=N)N)C(=O)N[C@@H](Cc1ccc3ccccc3c1)C(=O)N2
B14: Example 72 (peptide)
peptide: cyclo(YRYCRG[dP]RR[2Nal]CYQK[dP]P)
modifications: disulfide 4-11
SMILES: N=C(N)NCCC[C@@H]1NC(=O)[C@@H]2CSSC[C@H](NC(=O)[C@H](Cc3ccc4ccccc4c3)NC(=O)[C@H](CCCNC(=N)N)NC(=O)[C@H](CCCNC(=N)N)NC(=O)[C@H]3CCCN3C(=O)CNC1=O)C(=O)N[C@@H](Cc1ccc(O)cc1)C(=O)N[C@@H](CCC(N)=O)C(=O)N[C@@H](CCCCN)C(=O)N1CCC[C@@H]1C(=O)N1CCC[C@H]1C(=O)N[C@@H](Cc1ccc(O)cc1)C(=O)N[C@@H](CCCNC(=N)N)C(=O)N[C@@H](Cc1ccc(O)cc1)C(=O)N2

molecular target: human CXCR4 (human, UniProt P61073 1-352); experiment: cell-based or functional assay
Sequence (P61073 whole entry): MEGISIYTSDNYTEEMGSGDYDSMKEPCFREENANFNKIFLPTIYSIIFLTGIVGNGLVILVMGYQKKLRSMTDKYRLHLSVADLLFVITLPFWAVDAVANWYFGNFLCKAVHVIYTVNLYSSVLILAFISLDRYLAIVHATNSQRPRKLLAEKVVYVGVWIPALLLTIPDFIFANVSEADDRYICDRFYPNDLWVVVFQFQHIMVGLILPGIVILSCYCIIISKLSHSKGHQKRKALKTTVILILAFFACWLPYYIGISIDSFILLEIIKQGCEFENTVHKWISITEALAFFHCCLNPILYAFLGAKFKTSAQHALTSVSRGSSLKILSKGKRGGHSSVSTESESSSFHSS

Point of comparison: B13, “IC50 (nM) Ca2+ assay (method 2)” value 2.7 nM. Against it:
- B1 — 15-fold lower, 0.18 nM
- B2 — 1.5-fold higher, 4.1 nM
- B3 — 1.5-fold lower, 1.8 nM
- B4 — within 1.5-fold, 2 nM
- B5 — within 1.5-fold, 3.3 nM
- B7 — within 1.5-fold, 3.9 nM
- B8 — within 1.5-fold, 3.8 nM
- B9 — within 1.5-fold, 2.4 nM
- B10 — 2.5-fold lower, 1.1 nM
- B11 — 1.5-fold lower, 1.8 nM
- B12 — 7.2-fold higher, 19.5 nM
- B14 — within 1.5-fold, 3.9 nM

B6 was tested, and the “IC50 (nM) Ca2+ assay (method 1)” value was 1000 nM.
